In article PMC3150801 (Nature, 2011):

Molecular target: GST hLRH-1 ligand binding domain (amino acid residues, 185-541) (human, UniProt O00482 185-541)
Assay: pull-down

GST hLRH-1 ligand binding domain (amino acid residues, 185-541), sequence (O00482 185-541): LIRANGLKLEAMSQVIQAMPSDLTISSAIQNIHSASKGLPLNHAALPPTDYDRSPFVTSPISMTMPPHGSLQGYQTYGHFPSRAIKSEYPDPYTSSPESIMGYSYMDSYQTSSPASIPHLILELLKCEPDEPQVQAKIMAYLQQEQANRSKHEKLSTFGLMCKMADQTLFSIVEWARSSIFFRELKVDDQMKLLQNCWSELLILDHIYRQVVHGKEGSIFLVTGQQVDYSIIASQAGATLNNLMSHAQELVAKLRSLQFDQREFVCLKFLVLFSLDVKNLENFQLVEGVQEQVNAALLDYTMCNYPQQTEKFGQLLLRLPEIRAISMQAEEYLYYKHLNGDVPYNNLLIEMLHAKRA

- fold increase of binding with DLPC or DUPC over basal: ~3 fold
B1: Full-length [35S]methionine-labeled SRC-3 (natural protein)
chain: not shown
modifications: [35S]methionine label
